Results taken from patent US20050234221A1 (Amgen, published 2005).

Molecular target: T1, IL-17RB-3-Fc fusion protein (human)
T1 construct: Used as 5x concentrated conditioned medium; also called huIL-17RB-3 like-Fc; HIL17RB-3-Fc
Assay: restates the competition assay of Example 8
Procedure: The conditioned media from 293E cells transfected to express IL-17E-Fc fusion protein (SEQ ID NO: 23), prepared as described in Example 7 above, was collected, concentrated and used for the binding assay. Specificity of ligand binding was determined by competition with soluble blocking receptors, either IL-17RB-2-Fc or IL-17RB-3-Fc fusion proteins (SEQ ID NOS: 22 or 23, respectively). IL-17R-Fc fusion protein (consisting of the extracellular domain of SEQ ID NO: 3) was purified from conditioned media collected from transfected 293E cells and used as a control. Conditioned media from 293E cells transfected with IL-17RB-2-Fc or IL-17-RB-3-Fc (deposited with the ATCC on Mar. 14, 2001 under Accession Nos. and respectively), as described in Example 6 above, was concentrated (5×) with an Amicon 3Kd cut-off Centracon (#4203) and used for blocking.
Prior to the binding assay, 0.5 ml of IL-17E-Fc fusion protein containing (1×) conditioned media was added into vials each containing 0.5 ml 5× conditioned media of IL-17RB-2-Fc, IL-17RB-3-Fc, or 0.5 ml of 5 μg/ml IL-17R-Fc protein in RPMI 1640. Each vial was incubated on ice for 2 hours.
Subsequently, GM3104A cells (1×10⁶ cells per sample) were incubated with 1 ml of 8% FBS/PBS, at 4° C. for 1 hour. […]

binding result: binds
B1: recombinant human IL-17E-Fc fusion protein (Fc fusion)
chain: YSHWPSCCPSKGQDTSEELLRWSTVPVPPLEPARPNRHPESCRASEDGPLNSRAISPWRYELDRDLNRLPQDLYHARCLCPHCVSLQTGSHMDPRGNSELLYHNQTVFYRRPCHGEKGTHKGYCLERRLYRVSLACVCVRPRVMGEPKSADKTHTCPPCPAPELLGGPSVFLFPPKPKDTLMISRTPEVTCVVVDVSHEDPEVKFNWYVDGVEVHNAKTKPREEQYNSTYRVVSVLTVLHQDWLNGKEYKCKVSNKALPAPIEKTISKAKGQPREPQVYTLPPSRDELTKNQVSLTCLVKGFYPSDDIAVEWESNGQPENNYKTTPPVLDSDGSFFLYSKLTVDKSRWQQGNVFSCSVMHEALHNHYTQKSLSLSPGK
notes: Used as conditioned medium of transfected 293E cells; also called IL-17 like-Fc; rhIL-17 like-Fc
